# Experimental data taken from patent publication US20170044545, “APTAMER FOR BONDING TO AUTOTAXIN AND INHIBITING BIOLOGICAL ACTIVITY OF AUTOTAXIN, AND USE FOR SAME” (RIBOMIC INC., published 2017).
# Target: Autotaxin (ENPP2, NPP2) (Homo sapiens, UniProt Q13822 Q13822:36-863)
# Test: inhibition
row,Binder,IC50
1,"UCUGAGGGAAACAGGUUUUGCUCCUCGGA (mixed, as 16(21) with dC23 dC24 dC26) [SEQ 16(33)]",0.6 nM
2,"UCUGAGGGAAACAGGUUUUGCUCCUCGGA (mixed, as 16(32) with 5' 40 kDa PEG (GL2-400GS2)-ssH linker instead of 5' idT) [SEQ 16(34)]",4.2 nM
3,"UCUGAGGGAAACAGGUUUUGCUCCUCGGA (mixed, as 16(33) with 5' 40 kDa PEG (GL2-400GS2)-ssH linker instead of 5' idT) [SEQ 16(35)]",3 nM
4,"UCUGAGGGAAACAGGUUUUGCUCCUCGGA (mixed, as 16(32) with PS at A10) [SEQ 16(36)]",0.3 nM
5,"UCUGAGGGAAACAGGUUUUGCUCCUCGGA (mixed, as 16(33) with PS at A10) [SEQ 16(37)]",0.25 nM
6,"UCUGAGGGAAACAGGUUUUGCUCCUCGGA (mixed, as 16(21) with dC23 dC26) [SEQ 16(38)]",1.3 nM
7,"UCUGAGGGAAACAGGUUUUGCUCCUCGGA (mixed, as 16(38) with 5' 40 kDa PEG (GL2-400GS2)-ssH linker instead of 5' idT) [SEQ 16(39)]",3.8 nM
8,"UCUGAGGGAAACAGGUUUUGCUCCUCGGA (mixed, as 16(21) with dT1) [SEQ 16(40)]",0.9 nM
9,"UCUGAGGGAAACAGGUUUUGCUCCUCGGA (mixed, as 16(21) with dC2) [SEQ 16(41)]",2.2 nM
10,"UCUGAGGGAAACAGGUUUUGCUCCUCGGA (mixed, as 16(21) with dT3) [SEQ 16(42)]",1 nM
11,"UCUGAGGGAAACAGGUUUUGCUCCUCGGA (mixed, as 16(21) with 5' 80 kDa PEG (GL2-800GS2)-ssH linker instead of 5' idT) [SEQ 16(43)]",3 nM
12,"UCUGAGGGAAACAGGUUUUGCUCCUCGGA (mixed, as 16(43) with PS at A10) [SEQ 16(44)]",2.8 nM
13,"UCUGAGGGAAACAGGUUUUGCUCCUCGGA (mixed, as 16(21) with 5' 80 kDa PEG (GL4-800GS2)-ssH linker instead of 5' idT) [SEQ 16(45)]",13 nM
14,"UCUGAGGGAAACAGGUUUUGCUCCUCGGA (mixed, as 16(45) with PS at A10) [SEQ 16(46)]",2 nM
15,"UCUGAGGGAAACAGGUUUUGCUCCUCGGA (mixed, as 16(21) with dT1 dC23 dC26) [SEQ 16(47)]",2.4 nM
16,"UCUGAGGGAAACAGGUUUUGCUCCUCGGA (mixed, as 16(47) with 5' 80 kDa PEG (GL2-800GS2)-ssH linker instead of 5' idT) [SEQ 16(48)]",7.8 nM
17,"UCUGAGGGAAACAGGUUUUGCUCCUCGGA (mixed, as 16(48) with PS at A10) [SEQ 16(49)]",1.6 nM
18,"UCUGAGGGAAACAGGUUUUGCUCCUCGGA (mixed, as 16(47) with PS at A10 and 2'-OMe C2 U3) [SEQ 16(55)]",0.4 nM
19,"UCUGAGGGAAACAGGUUUUGCUCCUCGGA (mixed, as 16(49) with 2'-OMe C2 U3 U22 C24 U25) [SEQ 16(65)]",0.3 nM
20,"UCUGAGGGAAACAGGUUUUGCUCCUCGGA (mixed, as 16(47) with dA10 and phosphorodithioate at A10) [SEQ 16(68)]",1.7 nM
21,"SEQ 8 aptamer (ssRNA, 2'-F pyrimidines, 2'-OH purines) RNA: GGGUGGCAACAGGACAUGGAACGCGCCCCAACUGCUUGAAACAGGUUUUGCUGAGCAGUGAUGUGAGAUGCGUCUUCGUAC",49 nM
22,"SEQ 14 (ssRNA, 2'-F pyrimidines, 2'-OH purines) RNA: GGGCUAAACGCUCUGAGGGAAACAGGUUUUGCUCCUCGGAGCGUGGACGCCC",26 nM

row,Binder,IC50
1,"CCGCUCUGAGGGAAACAGGUUUUGCUCCUCGGAGCGG (ssRNA, 2'-F pyrimidines, 2'-OH purines) [SEQ 15]",7 nM
2,"UCUGAGGGAAACAGGUUUUGCUCCUCGGA (ssRNA, 2'-F pyrimidines, 2'-OH purines) [SEQ 16]",12 nM
3,"UGAGGGAAACAGGUUUUGCUCCUCG (ssRNA, 2'-F pyrimidines, 2'-OH purines) [SEQ 17]",37 nM
4,"CUGAGGGAAACAGGUUUUGCUCCUCGG (ssRNA, 2'-F pyrimidines, 2'-OH purines) [SEQ 18]",34 nM
5,"CGAGGGAAACAGGUUUUGCUCCUCG (ssRNA, 2'-F pyrimidines, 2'-OH purines) [SEQ 19]",36 nM
6,"GAGGGAAACAGGUUUUGCUCCUC (ssRNA, 2'-F pyrimidines, 2'-OH purines) [SEQ 20]",100 nM
7,"AGGGAAACAGGUUUUGCUCCU (ssRNA, 2'-F pyrimidines, 2'-OH purines) [SEQ 21]",710 nM
8,"ACUGCUUGAAACAGGUUUUGCUGAGCAGU (ssRNA, 2'-F pyrimidines, 2'-OH purines) [SEQ 24]",33 nM
9,"UCUGAGGGUAACAGGUUAUGCUCCUCGGA (ssRNA, 2'-F pyrimidines, 2'-OH purines) [SEQ 26]",510 nM
10,"UCCGAGGGAAACAGGUUUUGCUCCUCGGA (ssRNA, 2'-F pyrimidines, 2'-OH purines) [SEQ 29]",53 nM
11,"UCUGAGGGAAACAGGUUUUGCUCCUCAGA (ssRNA, 2'-F pyrimidines, 2'-OH purines) [SEQ 30]",50 nM
12,"UCUGAGGGAAACAGGCUUUGCUCCUCGGA (ssRNA, 2'-F pyrimidines, 2'-OH purines) [SEQ 31]",130 nM
13,"UCUGAGGGAAACAGGUUUCGCUCCUCGGA (ssRNA, 2'-F pyrimidines, 2'-OH purines) [SEQ 32]",55 nM
14,"UCUGAGGGGAACAGGUUUUGCUCCUCGGA (ssRNA, 2'-F pyrimidines, 2'-OH purines) [SEQ 33]",690 nM
15,"UCUGAGGGAGACAGGUUUUGCUCCUCGGA (ssRNA, 2'-F pyrimidines, 2'-OH purines) [SEQ 34]",340 nM
16,"UCUGAGGGUAACAGGUUUUGCUCCUCGGA (ssRNA, 2'-F pyrimidines, 2'-OH purines) [SEQ 40]",49 nM
17,"UCUGAGGGAAACAGGUCUUGCUCCUCGGA (ssRNA, 2'-F pyrimidines, 2'-OH purines) [SEQ 41]",43 nM
18,"UCUGGGGGAAACAGGUUUUGCUCCCCGGA (ssRNA, 2'-F pyrimidines, 2'-OH purines) [SEQ 44]",38 nM
19,"UCUGAGGGAAACAGGUUUUGCUCCUCGAA (ssRNA, 2'-F pyrimidines, 2'-OH purines) [SEQ 45]",29 nM
20,"UCCGAGGGAAACAGGUUUUGCUCCUCGCA (ssRNA, 2'-F pyrimidines, 2'-OH purines) [SEQ 47]",66 nM
21,"UAGAGAUGGAAACAGGUUUUGCUCAUCUCA (ssRNA, 2'-F pyrimidines, 2'-OH purines) [SEQ 50]",21 nM
22,"UUUGAAGGAAACAGGUUUUGCUCUUCGAG (ssRNA, 2'-F pyrimidines, 2'-OH purines) [SEQ 51]",85 nM

row,Binder,IC50
1,"UUCGAGGGAAACAGGUUUUGCUCCUCAAA (ssRNA, 2'-F pyrimidines, 2'-OH purines) [SEQ 52]",59 nM
2,"UGGGAAGGAAACAGGUUUUGCUCUUCACC (ssRNA, 2'-F pyrimidines, 2'-OH purines) [SEQ 53]",30 nM
3,"UCUGAGGGAAACAGGUUUUGCUCCUCGGA (ssRNA, 2'-F all pyrimidines; 2'-OMe G4 A5 G6 G7 G27 G28 A29; other purines 2'-OH) [SEQ 16(1)]",17 nM
4,"UCUGAGGGAAACAGGUUUUGCUCCUCGGA (ssRNA, 2'-F all pyrimidines and G8; 2'-OMe G4 A5 G6 G7 A9 A11 A13 G20 G27 G28 A29; 2'-OH A10 G14 G15) [SEQ 16(2)]",22 nM
5,"UCUGAGGGAAACAGGUUUUGCUCCUCGGA (ssRNA, as 16(1) + 5' and 3' idT) [SEQ 16(3)]",10 nM
6,"UCUGAGGGAAACAGGUUUUGCUCCUCGGA (ssRNA, as 16(2) + 5' and 3' idT (G14 printed lower case, probably typo)) [SEQ 16(4)]",17 nM
7,"UCUGAGGGAAACAGGUUUUGCUCCUCGGA (mixed, as 16(4) with dG14) [SEQ 16(5)]",6.7 nM
8,"UCUGAGGGAAACAGGUUUUGCUCCUCGGA (mixed, as 16(4) with dG14 dG15) [SEQ 16(6)]",5.9 nM
9,"UCUGAGGGAAACAGGUUUUGCUCCUCGGA (ssRNA, as 16(4) with PS at A10) [SEQ 16(7)]",7.3 nM
10,"UCUGAGGGAAACAGGUUUUGCUCCUCGGA (ssRNA, as 16(4) with 5' 40 kDa PEG (GL2-400TS)-ssH linker instead of 5' idT) [SEQ 16(8)]",42 nM
11,"UCUGAGGGAAACAGGUUUUGCUCCUCGGA (ssRNA, as 16(4) with 5' 80 kDa PEG (GL2-800TS)-ssH linker instead of 5' idT) [SEQ 16(9)]",32 nM
12,"UCUGAGGGAAACAGGUUUUGCUCCUCGGA (mixed, as 16(4) with dT1 dC2 dT3) [SEQ 16(10)]",21 nM
13,"UCUGAGGGAAACAGGUUUUGCUCCUCGGA (mixed, as 16(4) with dT25 dC26) [SEQ 16(11)]",27 nM
14,"UCUGAGGGAAACAGGUUUUGCUCCUCGGA (mixed, as 16(4) with dC23 dC24) [SEQ 16(12)]",37 nM
15,"UCUGAGGGAAACAGGUUUUGCUCCUCGGA (mixed, as 16(4) with dT22) [SEQ 16(13)]",52 nM
16,"UCUGAGGGAAACAGGUUUUGCUCCUCGGA (mixed, as 16(4) with dG8) [SEQ 16(14)]",6.3 nM
17,"UCUGAGGGAAACAGGUUUUGCUCCUCGGA (mixed, as 16(4) with dC21) [SEQ 16(15)]",77 nM
18,"UCUGAGGGAAACAGGUUUUGCUCCUCGGA (mixed, as 16(4) with dT19) [SEQ 16(16)]",45 nM
19,"UCUGAGGGAAACAGGUUUUGCUCCUCGGA (mixed, as 16(4) with dT18) [SEQ 16(17)]",46 nM
20,"UCUGAGGGAAACAGGUUUUGCUCCUCGGA (mixed, as 16(4) with dT17) [SEQ 16(18)]",29 nM
